Measurements from publication PMC10491789.

Target: GPI-T (wild-type human GPI transamidase complex, purified by the same strategy as GPI-T^sub) (human) (UniProt O43292)
Experiment: tandem affinity co-purification; co-expressed in HEK293T-derived knockout cells; solubilised with 1% LMNG/0.1% CHS, exchanged to digitonin; Strep-Tactin beads (Strep tag on PIGU) then Ni-NTA (His tag on (pro)ULBP2); 4 °C; 150 mM NaCl, Tris-HCl pH 8.0

yield during the second affinity chromatography step: 4%
Substance: ULBP2 (His-tagged GPI-anchored product, co-expressed with wild-type GPI-T) (from UniProt Q9BZM5 27-217) (natural protein)
